Source: the supplement of paper PMC9732359
± gives the uncertainty stated by the source.

Assay: protein stability index of a GFP-peptide fusion (yeast GPS) (PSI 1-4); higher = more stable; sorted into four equal gates, so the index is relative within each strain
How it was run: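 Mid-log yeast cultures in leucine-free medium, carrying a pooled plasmid library, were sorted into four equal gates by their GFP/Cherry fluorescence ratio. Each plasmid expressed Cherry along with GFP fused upstream of a tiled 17-residue yeast protein peptide. Plasmids recovered from each gate were PCR-amplified and Illumina-sequenced, with reads assigned to strains by barcodes. The protein stability index was obtained by summing each gate's read frequency weighted by its gate number.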

| Sequence | protein stability index (doa10∆) | protein stability index (pdr5∆) | protein stability index (ubr1∆) | protein stability index (san1∆) |
| --- | --- | --- | --- | --- |
| HRVAENWRKQKGIDSVV [RPL32] | 2.55 ± 0.099 | 2.61 ± 0.17 | 2.25 ± 0.18 |  |
| PSADGADKKDDSESNSE [ITC1] | 2.83 ± 0.083 | 3.11 ± 0.065 | 2.96 ± 0.068 | 3.34 ± 0.068 |
| GNYIKTENATENDQQDN [LIN1] | 2.51 ± 0.098 | 2.62 ± 0.071 | 2.61 ± 0.086 | 2.05 ± 0.13 |
| INNLPPEKEASSATIVL [YCG1] | 2.55 ± 0.16 | 2.88 ± 0.14 | 2.52 ± 0.073 | 2.29 ± 0.19 |
| ETHETNISNAKLANFFS [YAR002W/NUP60] | 3.03 ± 0.12 | 3.15 ± 0.11 | 3.2 ± 0.13 | 3.15 ± 0.073 |
| YGFKQEIFDVTSNGLKK [FAS1] | 2.98 ± 0.12 | 3.3 ± 0.083 | 2.89 ± 0.047 | 2.61 ± 0.085 |
| TKKLIQKTVFDELCKLV [SRP54] | 1.1 ± 0.11 | 1.51 ± 0.096 | 1.11 ± 0.095 | 1.25 ± 0.18 |
| PNNETSVLSSKPGSKPE [SIR3] | 3.12 ± 0.11 | 3.04 ± 0.12 | 2.96 ± 0.064 | 3.06 ± 0.082 |
| NTTTYKSRPDRPKPVSP [SNF5] | 3.09 ± 0.045 | 3.12 ± 0.05 | 2.97 ± 0.042 | 3 ± 0.047 |
| LVLGEVSKKELYAIKKV [BRR2] | 1.68 ± 0.073 | 2.37 ± 0.096 | 1.83 ± 0.08 | 3.13 ± 0.079 |
| KLKEMQKVLNAHRQRAM [SMC4] | 1.84 ± 0.099 | 2.14 ± 0.12 | 1.57 ± 0.055 | 1.9 ± 0.12 |
| SLSDELNLDEIVACELI [YJL039C/NUP192] | 2.75 ± 0.13 | 2.53 ± 0.1 | 2.61 ± 0.14 |  |
| TPDPSELAAKEEPAKEE [FAS2] | 2.718 ± 0.024 | 2.821 ± 0.024 | 2.684 ± 0.019 | 2.693 ± 0.026 |
| GSEVRLRDDTLPKAWIS [COR1] | 2.49 ± 0.053 | 2.75 ± 0.065 | 2.69 ± 0.06 | 2.72 ± 0.075 |
| NPEEVEQVAEEAAAAEE [RPS0B] | 3.07 ± 0.092 | 3.03 ± 0.11 | 3.26 ± 0.071 | 2.95 ± 0.12 |
| MSLEPTQTVSGTPPMLH [DSN1] | 2.78 ± 0.14 | 3 ± 0.12 | 3 ± 0.1 | 2.92 ± 0.22 |
| GHLPEVSSKCNDIHLRF [ECM29] | 2.69 ± 0.11 | 2.92 ± 0.082 | 3.17 ± 0.17 |  |
| SFYRVEKIKKINYHQYI [SSN2] | 1.18 ± 0.081 | 1.36 ± 0.06 | 1.62 ± 0.1 | 1.39 ± 0.2 |
| WFLDHNYIENMNEMCKK [RPN8] | 3.54 ± 0.18 | 3.26 ± 0.12 | 3.2 ± 0.083 | 2.93 ± 0.077 |
| DMFEMSDEEENNNNKSI [SSN2] |  | 3.19 ± 0.18 | 3.04 ± 0.079 | 3.32 ± 0.17 |
| ENDLLQEFDSELSKEEK [SMC3] | 2.74 ± 0.3 |  | 3.03 ± 0.27 |  |
| PEYEKAMQYVCGDSIIC [SMC1] | 1.7 ± 0.1 | 2.27 ± 0.17 | 1.89 ± 0.1 | 1.88 ± 0.14 |
| YPSKTLKTDGVRAVSIT [FAS2] | 2.12 ± 0.078 | 2.3 ± 0.087 | 2.23 ± 0.061 | 2 ± 0.091 |
| SILVIVQKILPLSNEVF [SWI1] | 1.37 ± 0.045 | 1.34 ± 0.039 | 1.56 ± 0.037 | 1.3 ± 0.073 |
| YIFCISRTIGMVVNGPI [SCL1] | 1.45 ± 0.038 | 1.54 ± 0.047 | 1.56 ± 0.034 | 1.58 ± 0.082 |
| AEKSFKPPKNKYKVVRR [SEC65] | 2.58 ± 0.18 | 3 ± 0.17 | 3.16 ± 0.13 | 3.21 ± 0.071 |
| PDELIKAGVEAISQSLR [PRE5] | 2.83 ± 0.14 | 2.91 ± 0.15 | 1.49 ± 0.051 |  |
